Reference: the supplement of paper PMC10567573

B1: CCDC70 (parent)
chain: FSFKVSRWMGLACFRSLAASSPSI

Variants of: B1
Assay: protein stability index of a GFP-peptide fusion (GPS, HEK-293T) (PSI 1-6); higher = more stable
Settings: c terminus: a fixed tail appended
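Further: lentivirally expressed fusions sorted by FACS into six bins by GFP to DsRed ratio, PSI derived from sequencing read proportions per bin multiplied by bin number.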

With FSFKVSRWMPLACFRSLAASSPSI [G10P] as the variant, how does the protein stability index read?
Its protein stability index is 4.98.

Which protein stability index does the source give for FSFKVSRWMMLACFRSLAASSPSI [G10M] here?
Its protein stability index is 4.54.

With FSFKVSRWMWLACFRSLAASSPSI [G10W] as the variant, how does the protein stability index read?
The protein stability index was 3.9.

For FSFKVSRWMNLACFRSLAASSPSI [G10N], which protein stability index is on record?
The protein stability index was 3.79.

With FSFKVSRWMCLACFRSLAASSPSI [G10C] as the variant, how does the protein stability index read?
The protein stability index was 1.55.

For FSFKVSRWMFLACFRSLAASSPSI [G10F], which protein stability index is on record?
The protein stability index was 1.86.

With FSFKVSRWMGLACFRSLAACSPSI [S20C] as the variant, how does the protein stability index read?
Its protein stability index is 3.42.

For FSFKVSRWMGLACFRSLAAISPSI [S20I], which protein stability index is on record?
Its protein stability index is 3.96.

For FSFKVSRWMGLACFRSLAAGSPSI [S20G], which protein stability index is on record?
The protein stability index was 2.51.

With FSFKVSRWMGLACFRSLAAVSPSI [S20V] as the variant, how does the protein stability index read?
The protein stability index was 2.6.

Which protein stability index does the source give for FSFKVSRWMGLACFRSLAANSPSI [S20N] here?
The protein stability index was 2.46.

Which protein stability index does the source give for FSFKVSRWMGLACFRSLAAWSPSI [S20W] here?
Its protein stability index is 3.37.

Which protein stability index does the source give for FSFKVSRWMGLACFRSLAATSPSI [S20T] here?
The protein stability index was 2.31.

With FSFKVRRWMGLACFRSLAASSPSI [S6R] as the variant, how does the protein stability index read?
The protein stability index was 2.09.

With FSFKVKRWMGLACFRSLAASSPSI [S6K] as the variant, how does the protein stability index read?
The protein stability index was 2.24.

With FSFKVVRWMGLACFRSLAASSPSI [S6V] as the variant, how does the protein stability index read?
The protein stability index was 4.41.

For FSFKVTRWMGLACFRSLAASSPSI [S6T], which protein stability index is on record?
Its protein stability index is 2.43.

For FSFKVQRWMGLACFRSLAASSPSI [S6Q], which protein stability index is on record?
The protein stability index was 3.43.

For FSFKVWRWMGLACFRSLAASSPSI [S6W], which protein stability index is on record?
The protein stability index was 3.02.

For FSFKVGRWMGLACFRSLAASSPSI [S6G], which protein stability index is on record?
The protein stability index was 2.88.

For FSFKVFRWMGLACFRSLAASSPSI [S6F], which protein stability index is on record?
The protein stability index was 1.69.

With FSFKVIRWMGLACFRSLAASSPSI [S6I] as the variant, how does the protein stability index read?
The protein stability index was 2.7.

Which protein stability index does the source give for FSFKVLRWMGLACFRSLAASSPSI [S6L] here?
The protein stability index was 2.29.

With FSFKVSRWMGLACFMSLAASSPSI [R15M] as the variant, how does the protein stability index read?
The protein stability index was 3.86.

With FSFKVSRWMGLACFTSLAASSPSI [R15T] as the variant, how does the protein stability index read?
Its protein stability index is 2.79.

Which protein stability index does the source give for FSFKVSRWMGLACFLSLAASSPSI [R15L] here?
The protein stability index was 3.13.

For FSFKVSRWMGLACFSSLAASSPSI [R15S], which protein stability index is on record?
The protein stability index was 1.7.

With FSFKVSRWMGLACFWSLAASSPSI [R15W] as the variant, how does the protein stability index read?
Its protein stability index is 4.5.

Which protein stability index does the source give for FSFKVSRWMGLKCFRSLAASSPSI [A12K] here?
The protein stability index was 3.62.

For FSFKVSRWMGLRCFRSLAASSPSI [A12R], which protein stability index is on record?
The protein stability index was 1.49.

With FSFKVSRWMGLECFRSLAASSPSI [A12E] as the variant, how does the protein stability index read?
Its protein stability index is 2.75.

For FSFKVSRWMGLVCFRSLAASSPSI [A12V], which protein stability index is on record?
The protein stability index was 1.98.

Which protein stability index does the source give for FSFKVSRWMGLSCFRSLAASSPSI [A12S] here?
The protein stability index was 2.02.

With FSFKVSRWMGLYCFRSLAASSPSI [A12Y] as the variant, how does the protein stability index read?
Its protein stability index is 2.87.

With FSFKVSRWMGLLCFRSLAASSPSI [A12L] as the variant, how does the protein stability index read?
The protein stability index was 2.

With FSFKVSRWMGLDCFRSLAASSPSI [A12D] as the variant, how does the protein stability index read?
Its protein stability index is 2.87.

Which protein stability index does the source give for FGFKVSRWMGLACFRSLAASSPSI [S2G] here?
The protein stability index was 1.56.

For FMFKVSRWMGLACFRSLAASSPSI [S2M], which protein stability index is on record?
Its protein stability index is 2.1.

For FKFKVSRWMGLACFRSLAASSPSI [S2K], which protein stability index is on record?
Its protein stability index is 2.59.

Which protein stability index does the source give for FRFKVSRWMGLACFRSLAASSPSI [S2R] here?
The protein stability index was 1.49.

Which protein stability index does the source give for FAFKVSRWMGLACFRSLAASSPSI [S2A] here?
The protein stability index was 1.82.

With FDFKVSRWMGLACFRSLAASSPSI [S2D] as the variant, how does the protein stability index read?
The protein stability index was 2.19.

Which protein stability index does the source give for FPFKVSRWMGLACFRSLAASSPSI [S2P] here?
Its protein stability index is 2.37.

With FNFKVSRWMGLACFRSLAASSPSI [S2N] as the variant, how does the protein stability index read?
The protein stability index was 2.32.

For FFFKVSRWMGLACFRSLAASSPSI [S2F], which protein stability index is on record?
Its protein stability index is 3.87.

With FVFKVSRWMGLACFRSLAASSPSI [S2V] as the variant, how does the protein stability index read?
Its protein stability index is 1.84.

Which protein stability index does the source give for FCFKVSRWMGLACFRSLAASSPSI [S2C] here?
The protein stability index was 3.54.

Which protein stability index does the source give for FSFKVSRWMGGACFRSLAASSPSI [L11G] here?
Its protein stability index is 3.16.

Which protein stability index does the source give for FSFKVSRWMGHACFRSLAASSPSI [L11H] here?
Its protein stability index is 5.37.

With FSFKVSRWMGSACFRSLAASSPSI [L11S] as the variant, how does the protein stability index read?
The protein stability index was 3.51.

For FSFKVSRWMGYACFRSLAASSPSI [L11Y], which protein stability index is on record?
Its protein stability index is 3.04.

With FSFKVSRWMGPACFRSLAASSPSI [L11P] as the variant, how does the protein stability index read?
The protein stability index was 2.72.

With FSFKVSRWMGAACFRSLAASSPSI [L11A] as the variant, how does the protein stability index read?
Its protein stability index is 3.24.

For FSFKVSRWMGNACFRSLAASSPSI [L11N], which protein stability index is on record?
Its protein stability index is 2.65.

For FSFKVSRWMGIACFRSLAASSPSI [L11I], which protein stability index is on record?
Its protein stability index is 3.88.

Which protein stability index does the source give for FSFKVSRWMGLACFRSLAASSPCI [S23C] here?
The protein stability index was 2.6.

For FSFKVSRWMGLACFRSLAASSPKI [S23K], which protein stability index is on record?
Its protein stability index is 2.68.

With FSFKVSRWMGLACFRSLAASSPFI [S23F] as the variant, how does the protein stability index read?
Its protein stability index is 3.09.

With FSFKISRWMGLACFRSLAASSPSI [V5I] as the variant, how does the protein stability index read?
The protein stability index was 1.72.

For FSFKTSRWMGLACFRSLAASSPSI [V5T], which protein stability index is on record?
The protein stability index was 2.77.

With FSFKGSRWMGLACFRSLAASSPSI [V5G] as the variant, how does the protein stability index read?
Its protein stability index is 2.54.

With FSFKPSRWMGLACFRSLAASSPSI [V5P] as the variant, how does the protein stability index read?
Its protein stability index is 2.21.

With FSFKRSRWMGLACFRSLAASSPSI [V5R] as the variant, how does the protein stability index read?
The protein stability index was 3.55.

For FSFKESRWMGLACFRSLAASSPSI [V5E], which protein stability index is on record?
The protein stability index was 1.29.

For FSFKMSRWMGLACFRSLAASSPSI [V5M], which protein stability index is on record?
The protein stability index was 2.01.

Which protein stability index does the source give for FSFKQSRWMGLACFRSLAASSPSI [V5Q] here?
Its protein stability index is 3.04.

Which protein stability index does the source give for FSFKHSRWMGLACFRSLAASSPSI [V5H] here?
Its protein stability index is 2.

Which protein stability index does the source give for FSFKDSRWMGLACFRSLAASSPSI [V5D] here?
Its protein stability index is 1.73.

Which protein stability index does the source give for FSFKVSRWMGLACFRSGAASSPSI [L17G] here?
The protein stability index was 3.62.

For FSFKVSRWMGLACFRSYAASSPSI [L17Y], which protein stability index is on record?
Its protein stability index is 2.69.

Which protein stability index does the source give for FSFKVSRWMGLACFRSNAASSPSI [L17N] here?
The protein stability index was 2.73.

Which protein stability index does the source give for FSFKVSRWMGLACFRSVAASSPSI [L17V] here?
Its protein stability index is 2.84.

For FSFKVSRWMGLACFRSIAASSPSI [L17I], which protein stability index is on record?
Its protein stability index is 1.86.

Which protein stability index does the source give for FSFKVSRWMGLACFRSMAASSPSI [L17M] here?
Its protein stability index is 2.77.

With FSFKVSRWMGLACFRSQAASSPSI [L17Q] as the variant, how does the protein stability index read?
The protein stability index was 1.83.

For FSFKVSRWMGLACFRSLAASSPSD [I24D], which protein stability index is on record?
Its protein stability index is 2.72.

Which protein stability index does the source give for FSFKVSRWMGLACFRSLAASSPSQ [I24Q] here?
The protein stability index was 2.38.

Which protein stability index does the source give for FSFKVSRWMGLACFRSLAASSPSN [I24N] here?
The protein stability index was 2.33.

For FSFKVSRWMGLACFRSLAASSPSA [I24A], which protein stability index is on record?
Its protein stability index is 2.67.

With FSFKVSRWMGLACFRSLAASSPSM [I24M] as the variant, how does the protein stability index read?
The protein stability index was 2.23.

Which protein stability index does the source give for FSFKVSRWMGLACFRSLAASSPSS [I24S] here?
The protein stability index was 2.06.

With FSQKVSRWMGLACFRSLAASSPSI [F3Q] as the variant, how does the protein stability index read?
Its protein stability index is 1.92.

For FSWKVSRWMGLACFRSLAASSPSI [F3W], which protein stability index is on record?
The protein stability index was 1.82.

For FSRKVSRWMGLACFRSLAASSPSI [F3R], which protein stability index is on record?
The protein stability index was 3.02.

With FSIKVSRWMGLACFRSLAASSPSI [F3I] as the variant, how does the protein stability index read?
The protein stability index was 2.92.

For FSTKVSRWMGLACFRSLAASSPSI [F3T], which protein stability index is on record?
The protein stability index was 1.83.

With FSNKVSRWMGLACFRSLAASSPSI [F3N] as the variant, how does the protein stability index read?
Its protein stability index is 2.5.

With FSVKVSRWMGLACFRSLAASSPSI [F3V] as the variant, how does the protein stability index read?
Its protein stability index is 1.38.

With FSLKVSRWMGLACFRSLAASSPSI [F3L] as the variant, how does the protein stability index read?
Its protein stability index is 4.25.

With FSFKVSRFMGLACFRSLAASSPSI [W8F] as the variant, how does the protein stability index read?
The protein stability index was 4.12.

With FSFKVSREMGLACFRSLAASSPSI [W8E] as the variant, how does the protein stability index read?
The protein stability index was 1.29.

For FSFKVSRQMGLACFRSLAASSPSI [W8Q], which protein stability index is on record?
The protein stability index was 3.47.

For FSFKVSRAMGLACFRSLAASSPSI [W8A], which protein stability index is on record?
Its protein stability index is 1.12.

Which protein stability index does the source give for FSFKVSRKMGLACFRSLAASSPSI [W8K] here?
The protein stability index was 2.29.
